Measurements published in patent publication US20110059095A1 (Regeneron, published 2011).
Where no end group is shown, it is not given here. The star is where a group is joined. Biotin = O=C1N[C@H]2[C@H](CS[C@H]2CCCCC(=O)*)N1

T1: C-terminal biotinylated human PAR-2 14-mer peptide SEQ ID NO:884 (SLIGKVDGTSHVTG, wild-type) (human, not fully specified; C-terminal biotin (K-B))
T1 peptide: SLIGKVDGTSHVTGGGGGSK

T2: C-terminal biotinylated human PAR-2 peptide SEQ ID NO:881 (Gly-44 to Ala) (human, not fully specified; C-terminal biotin (K-B))
T2 construct: alanine-scan mutant
T2 peptide: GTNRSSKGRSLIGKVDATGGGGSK

T3: C-terminal biotinylated human PAR-2 peptide SEQ ID NO:875 (Leu-38 to Ala) (human, not fully specified; C-terminal biotin (K-B))
T3 construct: alanine-scan mutant
T3 peptide: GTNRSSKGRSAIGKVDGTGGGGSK

T4: Peptide C (human PAR-2), N-terminal biotinylated (Human)
T4 construct: also called Peptide C N-Term
T4 peptide: Biotin-GGGGSSLIGKV

T5: Peptide K (human PAR-1), unbiotinylated (Human)
T5 peptide: ATNATLDPRSFLLRNPND

T6: Peptide M (human PAR-4), unbiotinylated (Human)
T6 peptide: ESGSTGGGDDSTPSILPAP

T7: Peptide L (human PAR-3), unbiotinylated (Human)
T7 peptide: DTNNLAKPTLPIKTFRGA

T8: Peptide I (dog PAR-2) (Dog (Canis familiaris))
T8 peptide: GTNRTSKGRSLIGKTDSS

T9: Peptide H (rabbit PAR-2) (Rabbit (Oryctolagus cuniculus))
T9 peptide: GTNKTSKGRSLIGRNTGS

T10: Peptide E (mouse PAR-2), N-terminal biotinylated (Mouse (Mus musculus), N-terminal biotin via G4S linker)
T10 construct: also called Peptide E N-Term
T10 peptide: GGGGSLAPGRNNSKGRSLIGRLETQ

T11: Peptide G (rat PAR-2), C-terminal biotinylated (Rat (Rattus norvegicus), C-terminal biotin via G4S linker)
T11 construct: also called Peptide G C-Term
T11 peptide: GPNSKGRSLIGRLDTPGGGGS

T12: Peptide G (rat PAR-2), unbiotinylated (Rat (Rattus norvegicus))
T12 construct: also called Peptide G No Biotin
T12 peptide: GPNSKGRSLIGRLDTP

T13: Peptide G (rat PAR-2), N-terminal biotinylated (Rat (Rattus norvegicus), N-terminal biotin via G4S linker)
T13 construct: also called Peptide G N-Term
T13 peptide: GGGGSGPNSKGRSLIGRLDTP

T14: Peptide E (mouse PAR-2), unbiotinylated (Mouse (Mus musculus))
T14 construct: also called Peptide E No Biotin
T14 peptide: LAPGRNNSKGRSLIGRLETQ

T15: Peptide A (human PAR-2), unbiotinylated (Human)
T15 construct: also called Peptide A No Biotin
T15 peptide: GTNRSSKGRSLIGKVDGT


How the values were obtained:
[1] = target: T1, C-terminal biotinylated human PAR-2 …; assay: BLI Exp2
Description: (§1) In order to more particularly identify the amino acids of PAR-2 with which the PAR-2 antibodies interact, an alanine scanning study was carried out using peptides comprising the activating PAR-2 protease cleavage site.
(§2) The ability of each peptide mutant to bind to PAR-2 antibodies was measured using biolayer interferometry (Octet Red; ForteBio). Each peptide (2.5 μg/ml) was captured on streptavidin coated biosensor tips (Octet SA sensor) for 10 seconds. To measure binding and dissociation between each peptide and PAR-2 antibody, the peptide-coated biosensors were contacted with 200 nM solutions of PAR-2 antibodies for 5 minutes (binding) followed by transfer to buffer with no antibody for 10 min (dissociation). […] The results are expressed as percent binding and percent T_{1/2} relative to WT peptide (Tables 24-28).

[2] = target: T2, C-terminal biotinylated human PAR-2 …; assay: BLI Exp2
Description: as §1, §2

[3] = target: T3, C-terminal biotinylated human PAR-2 …; assay: BLI Exp2
Description: as §1, §2

[4] = target: T4, Peptide C (human PAR-2), N-terminal …; assay: SPR, peptide immobilized
[5] = target: T5, Peptide K (human PAR-1), unbiotinylated; assay: SPR, antibody captured
[6] = target: T6, Peptide M (human PAR-4), unbiotinylated; assay: SPR, antibody captured
[7] = target: T7, Peptide L (human PAR-3), unbiotinylated; assay: SPR, antibody captured
Peptide I (dog PAR-2) = target: T8, Peptide I (dog PAR-2); assay: SPR, antibody captured
Description: (§3) Equilibrium dissociation constants (KD values) for antigen binding to selected purified PAR-2 antibodies were determined by surface kinetics using a real-time surface plasmon resonance biosensor assay. Antibody was captured on either a rabbit anti-mouse IgG polyclonal antibody (GE Healthcare, Piscataway, N.J.) surface or a goat anti-human IgG polyclonal antibody (Jackson Immuno Research Lab, West Grove, Pa.) surface created through direct amine chemical coupling to a BIACORE™ CM5 sensor chip to form a captured antibody surface. […] Antigen-antibody binding and dissociation were monitored in real time at room temperature. Kinetic analysis was performed to calculate KD and half-life of antigen/antibody complex dissociation (Table 10). For those antibodies where no T_{1/2} value is shown, steady state analysis was used to calculate the KD value. NB: no binding observed under current experimental conditions. ND: not determined.

Peptide H (rabbit PAR-2) = target: T9, Peptide H (rabbit PAR-2); assay: SPR, antibody captured
Description: as §3

[8] = target: T10, Peptide E (mouse PAR-2), N-terminal …; assay: peptide ELISA titration
Description: (§4) Anti-PAR-2 antibodies were tested for their ability to bind to the PAR-2 peptides. Various PAR-2 Peptides (Table 3) were coated onto 96-well plates at a concentration of 2 μg/ml and incubated overnight followed by blocking in a suitable blocking agent for one hour. […] Purified anti-PAR-2 antibodies were added to the plate coated with PAR-2 peptides to a final concentration ranging from 0.2 to 2.0 μg/ml and incubated for one hour at room temperature. Detection of bound antibodies was determined with Horse-Radish Peroxidase (HRP) conjugated anti-mouse or human IgG (Jackson Immuno Research Lab, West Grove, Pa.) and developed by standard colorimetric response using tetramethylbenzidine (TMB) substrate. Absorbance was read at OD₄₅₀ for 0.1 second.
(§5) In another experiment, selected anti-PAR-2 antibodies cloned onto human IgG4 were tested for binding to unbiotinylated and biotinylated forms of PAR-2 peptides (Peptides A, E, F and G; as described above). […] Absorbance values at 450 nm were analyzed using a sigmoidal dose-response model in GraphPad Prism (GraphPad Software, Inc., La Jolla, Calif.) and EC₅₀ values were reported (Table 9). EC₅₀ values are defined as the antibody concentration required to achieve 50% maximal binding to PAR-2 peptide.

[9] = target: T11, Peptide G (rat PAR-2), C-terminal …; assay: peptide ELISA titration
Description: as §4, §5

[10] = target: T12, Peptide G (rat PAR-2), unbiotinylated; assay: peptide ELISA titration
Description: as §4, §5

[11] = target: T13, Peptide G (rat PAR-2), N-terminal …; assay: peptide ELISA titration
Description: as §4, §5

[12] = target: T14, Peptide E (mouse PAR-2), unbiotinylated; assay: peptide ELISA titration; ELISA titration, bivalent IgG on peptide-coated plate
Description: as §4, §5

[13] = target: T10, Peptide E (mouse PAR-2), N-terminal …; assay: SPR, peptide immobilized
[14] = target: T13, Peptide G (rat PAR-2), N-terminal …; assay: SPR, peptide immobilized
[15] = target: T15, Peptide A (human PAR-2), unbiotinylated; assay: SPR, antibody captured
[16] = target: T12, Peptide G (rat PAR-2), unbiotinylated; assay: SPR, antibody captured
Description: as §3

Binder	binding result [4]	binding result [5]	binding result [6]	binding result [7]	binding result (Peptide H (rabbit PAR-2))	EC50 [8]	EC50 [9]	EC50 [10]	EC50 [11]	EC50 [12]	Kd [13]	Kd [14]	T1/2 [14]	Kd [15]	T1/2 [15]	Kd [16]	T1/2 [16]	T1/2 [13]	Kd (Peptide I (dog PAR-2))	T1/2 (Peptide I (dog PAR-2))	other results
H4H588N (antibody, human IgG4, V domains shown, also called H2M588N variable regions) VH: EVQLLESGGGLVQPGGSLRLSCAASGFTFSSYAMTWVRQAPGKGLYWVSAISGGRGSAYYADSVKGRFTISRDNSKNTLYLQMNSLRAEDTAVYYCAKEGDSGYDLAYWGRGTLVTVSS VL: DIQMTQSPSSLSASVGDRVTITCRARQGISNNLAWLQQKPGKAPKSLIYAASSLQSGIPSKFSGSGSGTYFTLTISSLQPEDFATYYCQQYKSSPLTFGGGTKVEIK	no binding	no binding	no binding	no binding	no binding	–	–	–	–	–	–	–	–	–	–	–	–	–	–	–	% Rel Binding [1]: 100%; % Rel T1/2 [1]: 100%; % Rel Binding [2]: 67%; % Rel T1/2 [2]: 1%; % Rel Binding [3]: 105%; % Rel T1/2 [3]: 42%; binding result (Peptide I (dog PAR-2)): no binding
H4H584P (antibody, human IgG4, V domains shown, also called H1H584P variable regions) VH: QVQLVESGGGVVQPGRSLRLSCVASGFTFSRYGMHWVRQAPGKGLEWVVVISYDGINKYYADSVKGRFTISRDNSKNTVYLQMNSLRAEDTAVYYCAKGDFWSGYFDYWGQGTLVTVSS VL: DIVMTQTPLSSPVTLGQPASISCRSSQSLVHSDGNTYLSWLHQRPGQPPRLLIYKISNRFSGVPDRFSGSGAGTDFTLQISRVEAEDVGIYYCMQATQFPTFGGGTKVEIK	no binding	no binding	no binding	no binding	no binding	0.511 nM	0.015 nM	0.013 nM	0.012 nM	2.15 nM	> 100 nM	1.39 nM	15 min	22 nM	0.73 min	246 nM	0.13 min	–	–	–	–
H4H579P (antibody, human IgG4, V domains shown, also called H1H579P variable regions) VH: QVQLVESGGGVVQPGRSLRLSCVASGFTFSRYGMHWVRQAPGKGLEWLIVISYDGINKYYADSVKGRFTISRDNSKNTVYLQMNSLRAEDTGVYYCAKGDFWSGYFDYWGQGTLVTVSS VL: DIVMTQTPLSSPVTLGQPASISCRSSQSLVHSDGNTYLSWLHQRPGQPPRLLIYKISNRFSGVPDRFSGSGAGTDFTLQISRVEAEDVGIYYCMQGTQFPTFGGGTKVEIK	no binding	no binding	no binding	no binding	–	0.54 nM	0.044 nM	0.055 nM	0.059 nM	–	3.4 nM	1.16 nM	38 min	15 nM	4 min	134 nM	0.45 min	20 min	311 nM	0.26 min	–
H4H581P (antibody, human IgG4, V domains shown, also called mAb H4H581P; H1H581P variable regions) VH: QVQLVESGGGVVQPGRSLRLSCVASGFTFSRYGIHWVRQAPGKGLEWVIVISYDGINKYYADSVKGRFTISRDNSKNTVYLQMNSLRAEDTAVYYCAKGDFWSGYFDYWGQGTLVTVSS VL: DIVMTQTPLSSPVTLGQPASISCRSSQSLVHSDGNTYLSWLHQRPGQPPRLLIYKISNRFSGVPDRFSGSGAGTDFTLQISRVEAEDVGIYYCMQATQFPTFGGGTKVEIK	–	–	–	–	no binding	0.032 nM	0.013 nM	0.02 nM	0.019 nM	0.029 nM	1.13 nM	0.354 nM	62 min	9.44 nM	1.4 min	40.2 nM	0.63 min	21 min	143 nM	0.07 min	% Rel Binding [1]: 100%; % Rel T1/2 [1]: 100%; % Rel Binding [2]: 102%; % Rel T1/2 [2]: 124%; % Rel Binding [3]: 19%; % Rel T1/2 [3]: 0%; Kd [4]: > 100 nM
H4H585P (antibody, human IgG4, V domains shown, also called H1H585P variable regions) VH: QVQLVESGGGVVQPGRSLRLSCVASGFTFSRYGMHWVRQAPGKGLEWLIVISYDGINKYYADSVKGRFTISRDNSKNTVYLQMNSLRAEDTAVYYCAKGDFWSGYFDYWGQGTLVTVSS VL: DIVMTQTPLSSPVTLGQPASISCRSSQSLVHSDGNTYLSWLHQRPGQPPRLLIYKISNRFSGVPDRFSGSGAGTDFTLQISRVEAEDVGIYYCMQGTQFPTFGGGTKVEIK	–	–	–	–	–	0.189 nM	0.021 nM	0.018 nM	0.017 nM	–	> 100 nM	1.36 nM	35 min	8.78 nM	3.7 min	162 nM	0.33 min	–	372 nM	0.19 min	–
H4H583P (antibody, human IgG4, V domains shown, also called H1H583P variable regions) VH: QVQLVESGGGVVQPGMSLRLSCTASGFTFRRYGMHWVRQAPGKGLEWVAVIWYDGSNKYYADSVKGRFTITRDNSKNTLYLQMNSLRAEDTAIYFCASEITIGDWFDPRGQGTLVTVSS VL: AIQMTQSPSSLSASVGDRVTITCRASQGIRNDLGWFQQKPGKVPKLLIYAASTLHSGVPSRFSGSGFGTDFTLTISSLQPEDFATYYCLQDFNYPLTFGGGTKVEIK	no binding	no binding	no binding	no binding	–	0.014 nM	0.63 nM	0.012 nM	0.015 nM	0.019 nM	1.68 nM	1.49 nM	13 min	37.1 nM	0.37 min	530 nM	0.07 min	11 min	320 nM	0.16 min	Kd (Peptide H (rabbit PAR-2)): 189 nM; T1/2 (Peptide H (rabbit PAR-2)): 0.17 min
